One molecule from patent US20180185467A1 (Harvard, published 2018) can be followed below.

For the experiment, the target named is T1, GST-NS3 of YFV (strain 17D) (Yellow Fever virus, strain 17D, UniProt P03314 1485-2107).
T1 construct: domain: NS3; also called YFV NS3; NS3 of Yellow Fever virus
T1 sequence: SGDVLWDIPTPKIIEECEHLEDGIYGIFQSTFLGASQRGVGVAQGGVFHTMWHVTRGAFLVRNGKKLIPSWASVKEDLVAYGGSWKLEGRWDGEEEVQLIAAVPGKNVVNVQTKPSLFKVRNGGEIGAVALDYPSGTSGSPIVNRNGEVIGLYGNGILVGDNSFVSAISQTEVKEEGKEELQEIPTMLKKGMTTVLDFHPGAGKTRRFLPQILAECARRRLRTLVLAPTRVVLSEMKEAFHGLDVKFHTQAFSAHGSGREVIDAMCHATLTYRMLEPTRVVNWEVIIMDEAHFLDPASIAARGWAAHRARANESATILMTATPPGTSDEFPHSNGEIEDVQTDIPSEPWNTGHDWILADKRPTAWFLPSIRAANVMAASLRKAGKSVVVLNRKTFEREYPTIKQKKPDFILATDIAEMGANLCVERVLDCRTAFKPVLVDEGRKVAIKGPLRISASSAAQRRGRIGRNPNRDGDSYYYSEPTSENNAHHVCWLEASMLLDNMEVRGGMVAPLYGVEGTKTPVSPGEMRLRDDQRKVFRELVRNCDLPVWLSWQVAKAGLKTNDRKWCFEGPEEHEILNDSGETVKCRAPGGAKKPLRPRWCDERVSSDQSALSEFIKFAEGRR
The experiment can be described thus: GST pull-down in 293T cells, immunoblot with anti-14-3-3ε. (Immunoblotting shows a protein as a band on a membrane.)

B1: endogenous 14-3-3ε (other)
chain: MDDREDLVYQAKLAEQAERYDEMVESMKKVAGMDVELTVEERNLLSVAYKNVIGARRASWRIISSIEQKEENKGGEDKLKMIREYRQMVETELKLICCDILDVLDKHLIPAANTGESKVFYYKMKGDYHRYLAEFATGNDRKEAAENSLVAYKAASDIAMTELPPTHPIRLGLALNFSVFYYEILNSPDRACRLAKAAFDDAIAELDTLSEESYKDSTLIMQLLRDNLTLWTSDMQGDGEEQNKEALQDVEDENQ
As for B1, the binding result was “no binding”.
